Legend:
[1] = tested on: K4 kissing-loop RNA reporter; assay: apparent KD of K4 kissing-loop reporter; higher = weaker reporter binding; details: Eterna round: R107;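 also: bound reporter read as fluorescence of individual clusters on recovered sequencing chips by microscopy, with normalized cluster intensities fitted with a binding model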
Protocol: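 RNA-MaP round R107: designed RNA switches with theophylline, tryptophan, arginine or FMN aptamers are transcribed on-chip within common flanks. They are titrated with a labelled K4 kissing-loop RNA reporter in RNA-MaP buffer (100 mM Tris pH 7.5, 80 mM KCl, 4 mM MgCl2), without ligand or with the indicated ligand. Median apparent KD per design.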

MS2 coat protein = assay: apparent KD of MS2 coat protein; designed switch direction (-1 OFF switch, 1 ON switch): -1; higher = weaker reporter binding; details: Eterna round: R95; input ligand: microRNA oligo, concentration not stated
Summary of the method: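 SNAP-549-labelled MS2 coat protein was titrated, doubling from 0.7 or 1.5 nM to 3 µM, over designed RNA switches transcribed on Illumina chips by stalled E. coli RNA polymerase. Runs were done without input, with 200 uM small-molecule ligand, or with an oligonucleotide input. Apparent KD is the per-design median over clusters of curve-fitted normalised fluorescence.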

[2] = input ligand: theophylline 20 uM
[3] = input ligand: tryptophan 2.4 mM

Sequence | apparent KD of K4 kissing-loop reporter ([1]; input ligand: FMN 200 uM) [nM] | apparent KD of K4 kissing-loop reporter ([1]; input ligand: arginine 13.2 mM) [nM] | apparent KD of K4 kissing-loop reporter ([1]; input ligand: none) [nM] | apparent KD of K4 kissing-loop reporter [1, 2] [nM] | apparent KD of K4 kissing-loop reporter [1, 3] [nM] | apparent KD of MS2 coat protein (MS2 coat protein) [nM]
ACAUGACGUGCGCCCGUCAUGAAACGUGCAAAGGAUAUUCCGUUUUGAAGAAGGUUGCGGUAGUGUAGUGAUGUUGCUCCGCCGU [theeternabot_sameState_KL_FMN_A_11] | 512 | 360 | 343 | 315 | 347 | 
GGCGCAGUGAUGUUGCGGGCCGAGAGUGAUACCAGCCGUAUUUGUGGCCCUUGGCAGCGCAGAACCAGUGAUGUUGGUUACUUGG [Same State Theophylline A GF 22] | 223 | 513 | 423 | 467 | 421 | 
UCACCGCCUAGUGAUGUUACGCGACUCAGAAAGGAUAUAAUCAAUCUUAGAAGGUUCACACCGUAUGGAUAUUAUCUAUCUCGUU [theeternabot_exclusion_KL_FMN_A_39] | 456 | 284 | 427 | 437 | 398 | 
UAAGAAUAGCAUGCAGUGAUGUUGCAUGUCCGAGGACCGGUACGGCCGCCACUCGAGUCCUCGAACAUGCACCGAGGAAUAACAA [#19 K4 Tryptophan A Same State] | 108 | 79.6 | 109 | 107 | 124 | 
GUAUGUGGAAACACGUACUUAUAUCCUCGACAGGAUAUGCGGAAACGCAGAAGGGUCGCCAACGAGUUUAUCCAGUGAUGUUGGA [Ex FMN A 15] | 347 | 296 | 362 | 335 | 350 | 
UAAAUCACACGAGAUACCAGCCAAACCGAACUUGAGCACUAUAGUGAUGUUAUAUUGCGAGGCCCUUGGCAGCUCAAUAGAACAA [theeternabot_sameState_KL_Theo_B_11] | 213 | 174 | 190 | 145 | 182 | 
GUCUUACUAUAGGAUACCAGCAUGCAAGGAGUGAUGUUCCCGUCAUAUGAGGAGUACCGCUGCCCUUGGCAGCCUCUUGUAAGUU [theeternabot_sameState_KL_Theo_B_1] | 502 | 253 | 353 | 411 | 316 | 
AAGUACACGAUAGUGUACACCUAGUGAUGUUAGGAUAUGCAGAUAUGCAGAAGGAACAAGUCAUCUGACAAUAGUCGGAUGACAA [FmnAX 6 #OpenEnded #K4Early] | 577 | 75.5 | 109 | 110 | 98 | 
UUCGGCCUGACGGCCGCCACUUUGGGUAGUGAUGUUACCAACAUUCACCAGAUACAGGUUACUUCAAGGACCGGGUCAGACGGUG [theeternabot_exclusion_KL_Trp_B_45] | 104 | 100 | 121 | 107 | 92.8 | 
GGGAACUCUUACGAUACCAGCCGGAGUGAUGUUCCGCGCUUGGACGUAGUAACCCGCACCGGCCCUUGGCAGCGUGGAUCUUAUA [Esbedi] | 89.9 | 73.5 | 73.9 | 82.7 | 83.1 | 
UGCGCUAUGUCCUAAAACGUCCUCCGGGAUACCAGAGUCUUUUUAUUCCCUUGGCAGCUUGAGUGAUGUUUGAUGCCGUUCUUGU [srrevmullin] | 364 | 215 | 366 | 287 | 315 | 
GGUUUAUAAGAGGAUACCAGUACAAAUAAAGUACAUUAAUAGUAGAGUGAUGUUCUAAAGUACCCUUGGCAGCUUAGAUUAAGUU [ExTheophylB.F] | 114 | 226 | 151 | 217 | 85.4 | 
GGUUUAUAGGAGGAUACCAGUACGAAUAAAGUACAUUAAUAGUAGAGUGAUGUUCUAAAGUACCCUUGGCAGCUUAGAGUAAGUU [#18 K4 Theophylline B Exclusion] | 105 | 212 | 148 | 223 | 80.5 | 
UUAGGCUCUCUUCUCAUUCGCUUAACCGAUACCAGAGUAAGCCCUCUCCCUUGGCAGCGGAGUGAUGUUCCGAGUGUUGAUAUUG [theeternabot_exclusion_KL_Theo_A_44] | 93.1 | 113 | 113 | 130 | 107 | 
ACACUAUCGUCAUAGACGGUAGUGAAAGCUGAGGAUAUGAGUGAUGUUAGAAGGUAGCAAGACUGUAUCGAAUAGAUACAGUCAA [FmnA 5 #K4BetweenAptamer #OpenEnded] | 227 | 111 | 163 | 162 | 141 | 
UUUAUUAAGACGGCCGCCACUGAAUCAUAGUGAUGUUAUGAUAUAAUUUUAGUGAUUUUGAUUAGCAGGACCGGGUCAAUUAUUA [#26 K4 Tryptophan B Exclusion] | 165 | 133 | 144 | 139 | 140 | 
GGUAGCAUGGCGGCCGCCACUUAGACUGGAUCGGAAACGAUCCAGUGAAAACGAGUGAUGUUCGUAAGGACCGGGCCAUGCUACC | 386 | 301 | 318 | 350 | 173 | 
AAGCCAUACUCGGCCGCCACUUACUUCGUUGCAGUGAUGUUGCACACGAAUCCGUCAUAGCAAAUAAGGACCGGGAGAUAUACCG [theeternabot_exclusion_KL_Trp_B_19] | 89.3 | 89.3 | 95.1 | 87.5 | 86.3 | 
CAUACGCAUGGAGGAUAUGAGAAUUCUCAUGUCAUUUAAUAUUCUCAGUGAUGUUGAGGAUGUGGCUCAGAAGGCCAUGUGUAUG [Ex FMN B 21] | 205 | 325 | 423 | 366 | 379 | 
GUACGCUCUCGAGUGAUGUUCGGUAAUAGUUAGGAUAUCGCUUUUGCGAGAAGGAACUGAAUGAGGAAACUCGUUCUGAGUGUAC [FMN A 18] | 618 | 183 | 342 | 398 | 239 | 

Sequence | apparent KD of K4 kissing-loop reporter ([1]; input ligand: FMN 200 uM) [nM] | apparent KD of K4 kissing-loop reporter ([1]; input ligand: arginine 13.2 mM) [nM] | apparent KD of K4 kissing-loop reporter ([1]; input ligand: none) [nM] | apparent KD of K4 kissing-loop reporter [1, 2] [nM] | apparent KD of K4 kissing-loop reporter [1, 3] [nM] | apparent KD of MS2 coat protein (MS2 coat protein) [nM]
AAAUAAAGCAGUCACCCAGUGAUGUUGGAAGGAGCGUGCGAAAGCACAGGUAGGUCGCCGAUAAGGACAAAGUCCAGUGGCUGCA [#SwitchBubble 28 #K4Early] | 458 | 344 | 595 | 590 | 283 | 
AUUUUGGUUGAGAGUGAUGUUCCUUGUGUUCGAGGACCGGUACGGCCGCCACUCGGGUAGAAAAUAAAAGAAAUGUUUGAUUUUU [BDazzled - #11 SS Tryptophan A] | 242 | 86.1 | 157 | 143 | 215 | 
CCCGUUGCGGCGGCCGCCACUGACUUAUUGAUUAGGUUGCCAGUGAUGUUGGCCACCGGUCAAUACAGGACCGGGCCAUAGCGGG [Ceisreatte] | 157 | 124 | 128 | 134 | 99.1 | 
AGGUACAAAAGUACCGCUAGAUCCACGGAAGGAGCGCGCGAAAGCGCAGGUAGGUCGCCGGGCAGUGAUGUUGCCGGAUCUAGCA [Omei KL Arginine A SS A v7] | 134 | 138 | 126 | 165 | 144 | 
CCUUUAGGCUCGGCCGCCACUCCAGUGAUGUUGGAGGUGCGUACAGAGCUAGAAAGCGUUAUCAGGAGGACCGGGAGUUUUAACG [Leorte] | 98.3 | 107 | 103 | 101 | 110 | 
AUCAGUGUCUCACGCUACGACAUAUACGAUACCAGUCACCCUGAUGACCCUUGGCAGCGUCAACGAGUGAUGUUCGGGUUCUAGA [theeternabot_sameState_KL_Theo_A_1] | 345 | 241 | 404 | 389 | 309 | 
UGUAUGUGAUUUGAUACCAGACCAGCUGGUGGAAACUGAGUGAUGUUCAGUUAGGUUUGGGUCCCUUGGCAGCAAAUCGCAUACU [KL-SSTheoB28] | 152 | 119 | 127 | 134 | 138 | 
UAAUCACUCGAACUUGCAACUCGAGUGGAACGAGGACCGGUACGGCCGCCACUCGAUAACUUGCAGUGAUGUUGCAAGUAAGAAU [(T)''-(K)'-(T)'-(T1)-(T2)-(K1)-(K2)_Design8] | 333 | 341 | 411 | 411 | 219 | 
AACUGUCAAGGACAACAUUACUGAGGUGAUACCAGGUUUGAGAGGAUCCCUUGGCAGCACCAACUUGCAGUGAUGUUGCAAGUAA [BrourdMod 15 - Jieux - Exclusion - Theophylline A] | 243 | 211 | 240 | 254 | 243 | 
AGAGUCAGACAAAAGUCUGGCUCAGCCGAAGGAGCGUCCGAAAGGACAGGUAGGUCGCGGUUGCAUGAGUGAUGUUGAUGUUUUU [KL-SSArg-A23] | 546 | 372 | 425 | 559 | 500 | 
UGAUUGGCGAAAGUAGUGAUGUUACGAAUAUAGGAUAUUAGAGGAAUAAGAAGGAUAAAGGAGAAAUAGGUAAAUUGUUGGUUGG [whbob_SS_FMNA__2th169] | 110 | 59.8 | 104 | 128 | 93.4 | 
AAGUAGCUCUCGGCCGCCACUCCUCAGUGAUGUUGAGAUUUUUUCUGCCAAUUGGCGUUUUUUUAGAGGACCGGGAGAGCUACAA [AK1 SS Tryptophan B] | 332 | 365 | 339 | 291 | 124 | 
GUGCGGCUAGUGAUGUUGGUUGCGUGGGAAGGAGCGCAGAAACAUGCAGGUAGGUCGCCCACACCUCUGAAAGGAGGCUAAUUCA [Bisobi] | 277 | 128 | 163 | 213 | 134 | 
GGCCGCAAGGCGAGCGCUCCCACUCCGGAAGGAGCGCCCGUAAGGGCAGGUAGGUCGCCGGAGUGAUGUUCCGGUGGAGGGCUCG [#2 Exclusion - Arginine A Attempt #17 (Inspired by Omei)] | 565 | 239 | 547 | 443 | 460 | 
AUAUUACUAUACGAUACCAGCCCUAACACUAGUGACGCGGUAAUAGUGAUGUUGUAACCCGGCCCUUGGCAGCGUAAUCAUGGAA [theeternabot_sameState_KL_Theo_B_7] | 529 | 395 | 519 | 524 | 475 | 
CUCGAGUGAUGUUCGAUUAUUUAUACAGAUACCAGUGAAUUUUAACACCCUUGGCAGCUGGUUGUAUCAUUUUUUUUUACUAAAG [JR_ExcTheophyA_Sub008] | 140 | 166 | 179 | 225 | 133 | 
UGGGCUGCCUGAGGAUAUAGAGACGAGUGAUGUUCGUGGAUAAGAGCCAGUGAUGUUGGGUUAUUUCUAGAAGGCGGGCGAACUU [Exclusion FMN B GF8] | 105 | 104 | 120 | 129 | 115 | 
CGGGAUGUUAAAGGAUAUAGCAGGUGAUACAAGAAAGUGAGUGAUGUUUAUGUAGAUGAUGAUAUGUUAGAAGGUUAACAAAACG [abcdefghijkl] | 1040 | 726 | 908 | 686 | 581 | 
UAUCUAUGCUCGGCCGCCACUAGGACCGGGUAGUCUCUAGUGAUGUUAGUCUCUACGGCCGCCACUAGGACCGGGAGUGUAGAUA [KL-SSTryp-B16 #DoubleAptamer] | 286 | 235 | 224 | 225 | 82.5 | 
GUGAAGUAAGGAUAUACAUGAGGAUCACCCAUGUGUGGGAAGGUGAUGGGAGUAGGUAGUAGAAGGUACGAGGA [JR_Exclu3_Sub065] (puzzle: Exclusion 3) |  |  |  |  |  | 108
